Measured values reported in patent US20230407373A1 (priority 2020, published 2023).
Like-named read-outs stand apart in the source and are kept apart here.

B1: PUM1: host protein, UniProt Q14671 (protein, UniProt Q14671 2-1186, looked up)
Pumilio homolog 1: SVACVLKRKAVLWQDSFSPHLKHHPQEPANPNMPVVLTSGTGSQAQPQPAANQALAAGTHSSPVPGSIGVAGRSQDDAMVDYFFQRQHGEQLGGGGSGGGGYNNSKHRWPTGDNIHAEHQVRSMDELNHDFQALALEGRAMGEQLLPGKKFWETDESSKDGPKGIFLGDQWRDSAWGTSDHSVSQPIMVQRRPGQSFHVNSEVNSVLSPRSESGGLGVSMVEYVLSSSPGDSCLRKGGFGPRDADSDENDKGEKKNKGTFDGDKLGDLKEEGDVMDKTNGLPVQNGIDADVKDFSRTPGNCQNSANEVDLLGPNQNGSEGLAQLTSTNGAKPVEDFSNMESQSVPLDPMEHVGMEPLQFDYSGTQVPVDSAAATVGLFDYNSQQQLFQRPNALAVQQLTAAQQQQYALAAAHQPHIGLAPAAFVPNPYIISAAPPGTDPYTAGLAAAATLGPAVVPHQYYGVTPWGVYPASLFQQQAAAAAAATNSANQQTTPQAQQGQQQVLRGGASQRPLTPNQNQQGQQTDPLVAAAAVNSALAFGQGLAAGMPGYPVLAPAAYYDQTGALVVNAGARNGLGAPVRLVAPAPVIISSSAAQAAVAAAAASANGAAGGLAGTTNGPFRPLGTQQPQPQPQQQPNNNLASSSFYGNNSLNSNSQSSSLFSQGSAQPANTSLGFGSSSSLGATLGSALGGFGTAVANSNTGSGSRRDSLTGSSDLYKRTSSSLTPIGHSFYNGLSFSSSPGPVGMPLPSQGPGHSQTPPPSLSSHGSSSSLNLGGLTNGSGRYISAAPGAEAKYRSASSASSLFSPSSTLFSSSRLRYGMSDVMPSGRSRLLEDFRNNRYPNLQLREIAGHIMEFSQDQHGSRFIQLKLERATPAERQLVFNEILQAAYQLMVDVFGNYVIQKFFEFGSLEQKLALAERIRGHVLSLALQMYGCRVIQKALEFIPSDQQNEMVRELDGHVLKCVKDQNGNHVVQKCIECVQPQSLQFIIDAFKGQVFALSTHPYGCRVIQRILEHCLPDQTLPILEELHQHTEQLVQDQYGNYVIQHVLEHGRPEDKSKIVAEIRGNVLVLSQHKFASNVVEKCVTHASRTERAVLIDEVCTMNDGPHSALYTMMKDQYANYVVQKMIDVAEPGQRKIVMHKIRPHIATLRKYTYGKHILAKLEKYYMKNGVDLGPICGPPNGII
B2: HNRNPA1 (protein, UniProt P09651 1-372, looked up)
Heterogeneous nuclear …: MSKSESPKEPEQLRKLFIGGLSFETTDESLRSHFEQWGTLTDCVVMRDPNTKRSRGFGFVTYATVEEVDAAMNARPHKVDGRVVEPKRAVSREDSQRPGAHLTVKKIFVGGIKEDTEEHHLRDYFEQYGKIEVIEIMTDRGSGKKRGFAFVTFDDHDSVDKIVIQKYHTVNGHNCEVRKALSKQEMASASSSQRGRSGSGNFGGGRGGGFGGNDNFGRGGNFSGRGGFGGSRGGGGYGGSGDGYNGFGNDGGYGGGGPGYSGGSRGYGSGGQGYGNQGSGYGGSGSYDSYNNGGGGGFGGGSGSNFGGGGSYNDFGNYNNQSSNFGPMKGGNFGGRSSGPYGGGGQYFAKPRNQGGYGGSSSSSSYGSGRRF
B3: HNRNPUL2: host protein, UniProt Q1KMD3 (protein, UniProt Q1KMD3 1-747, looked up)
Heterogeneous nuclear …: MEVKRLKVTELRSELQRRGLDSRGLKVDLAQRLQEALDAEMLEDEAGGGGAGPGGACKAEPRPVAASGGGPGGDEEEDEEEEEEDEEALLEDEDEEPPPAQALGQAAQPPPEPPEAAAMEAAAEPDASEKPAEATAGSGGVNGGEEQGLGKREEDEPEERSGDETPGSEVPGDKAAEEQGDDQDSEKSKPAGSDGERRGVKRQRDEKDEHGRAYYEFREEAYHSRSKSPLPPEEEAKDEEEDQTLVNLDTYTSDLHFQVSKDRYGGQPLFSEKFPTLWSGARSTYGVTKGKVCFEAKVTQNLPMKEGCTEVSLLRVGWSVDFSRPQLGEDEFSYGFDGRGLKAENGQFEEFGQTFGENDVIGCFANFETEEVELSFSKNGEDLGVAFWISKDSLADRALLPHVLCKNCVVELNFGQKEEPFFPPPEEFVFIHAVPVEERVRTAVPPKTIEECEVILMVGLPGSGKTQWALKYAKENPEKRYNVLGAETVLNQMRMKGLEEPEMDPKSRDLLVQQASQCLSKLVQIASRTKRNFILDQCNVYNSGQRRKLLLFKTFSRKVVVVVPNEEDWKKRLELRKEVEGDDVPESIMLEMKANFSLPEKCDYMDEVTYGELEKEEAQPIVTKYKEEARKLLPPSEKRTNRRNNRNKRNRQNRSRGQGYVGGQRRGYDNRAYGQQYWGQPGNRGGYRNFYDRYRGDYDRFYGRDYEYNRYRDYYRQYNRDWQSYYYHHPQDRDRYYRNYYGYQGYR
B4: RTCB (protein, UniProt Q9Y3I0 1-505, looked up)
RNA-splicing ligase RtcB …: MSRSYNDELQFLEKINKNCWRIKKGFVPNMQVEGVFYVNDALEKLMFEELRNACRGGGVGGFLPAMKQIGNVAALPGIVHRSIGLPDVHSGYGFAIGNMAAFDMNDPEAVVSPGGVGFDINCGVRLLRTNLDESDVQPVKEQLAQAMFDHIPVGVGSKGVIPMNAKDLEEALEMGVDWSLREGYAWAEDKEHCEEYGRMLQADPNKVSARAKKRGLPQLGTLGAGNHYAEIQVVDEIFNEYAAKKMGIDHKGQVCVMIHSGSRGLGHQVATDALVAMEKAMKRDKIIVNDRQLACARIASPEGQDYLKGMAAAGNYAWVNRSSMTFLTRQAFAKVFNTTPDDLDLHVIYDVSHNIAKVEQHVVDGKERTLLVHRKGSTRAFPPHHPLIAVDYQLTGQPVLIGGTMGTCSYVLTGTEQGMTETFGTTCHGAGRALSRAKSRRNLDFQDVLDKLADMGIAIRVASPKLVMEEAPESYKNVTDVVNTCHDAGISKKAIKLRPIAVIKG

Key:
Type in all cases: binding
HCoV-OC43 gRNA and sgRNA = details: for target (unweighted spectral count, OC43 Probe II capture) / target (unweighted spectral count): tested against no-probe control; for target (unweighted spectral count, OC43 Probe II capture): FDR<10%; for target (unweighted spectral count, OC43 Probe II) / background (unweighted spectral count, no-probe control): type n_48_v, 48 hpi; for target (unweighted spectral count, OC43 Probe II): OC43 Probe II capture on infected cells; for background (unweighted spectral count, no-probe control): no-probe control on infected cells; for target (unweighted spectral count): OC43 Probe II, infected cells
gRNA of HCoV-OC43 = details: for target (spectral count) / background (spectral count): type g_36_m, 36 hpi, Probe I; for target (spectral count): HCoV-OC43-infected HCT-8 cells; for background (spectral count): uninfected-probe control; for target (spectral count, OC43 Probe I RNP capture) / background (spectral count, no-probe control): type n_48_v: 48 hours post-infection; for target (spectral count, OC43 Probe I RNP capture): infected cells, unweighted spectral count; for background (spectral count, no-probe control): no-probe control on infected cells
[1] = system: SARS-CoV-2 gRNA and sgRNAs; details: for target (unweighted spectral count in RNP capture): Probe II capture, LC-MS/MS LFQ; for background (unweighted spectral count in control): no-probe control pull-down, used as background for Probe II
SARS-CoV-2 gRNA = details: […]; LC-MS/MS; Probe I sample (first 199 lines of Table 2)

Row | Molecule | target (unweighted spectral count, OC43 Probe II capture) (HCoV-OC43 gRNA and sgRNA; 36 hpi, type n_36_v) | target (unweighted spectral count, OC43 Probe II) (HCoV-OC43 gRNA and sgRNA) | background (unweighted spectral count, no-probe control) (HCoV-OC43 gRNA and sgRNA) | target (spectral count) (gRNA of HCoV-OC43) | background (spectral count) (gRNA of HCoV-OC43) | target (spectral count, OC43 Probe I RNP capture) (gRNA of HCoV-OC43) | background (spectral count, no-probe control) (gRNA of HCoV-OC43) | target (unweighted spectral count in RNP capture) ([1]; […]) | background (unweighted spectral count in control) [1] | target (unweighted spectral count of the protein in the RNP capture) (SARS-CoV-2 gRNA) | target (unweighted spectral count) (HCoV-OC43 gRNA and sgRNA; 12 hpi (type n_12_v)) | target (unweighted spectral count) (HCoV-OC43 gRNA and sgRNA; 24 hpi (type n_24_v)) | target (spectral count) (HCoV-OC43 gRNA and sgRNA; type s_36_m, HCoV-OC43-infected HCT-8 cells, 36 hpi, Probe II) | background (spectral count) (HCoV-OC43 gRNA and sgRNA; type s_36_m, uninfected-probe control, 36 hpi, Probe II) | target (unweighted spectral count of the protein in the RNP capture experiment) ([1]; […], LC-MS/MS label-free quantification, probe pool not given) | back-ground (unweighted spectral count of the protein in the control experiment) ([1]; protein background of the control (e.g. no-probe) experiment, […]) | target (unweighted spectral count, OC43 Probe II capture) (HCoV-OC43 gRNA and sgRNA; 24 hpi, type n_24_v)
1 | B1 | 6 | 6 | 1 | 11 | 1 | 6 | 1 | 20 | 1 | 6 |  |  |  |  |  |  | 
2 | B2 | 39 | 53 | 7 |  |  | 82 | 7 | 74 |  | 97 | 24 | 31 |  |  |  |  | 
3 | B3 | 14 | 25 | 2 | 24 | 3 | 33 | 2 |  |  | 6 | 6 | 11 | 14 | 1 | 5 | 1 | 
4 | B4 | 6 | 7 | 1 |  |  | 7 | 1 | 14 | 1 | 6 |  |  |  |  |  |  | 4
